According to paper PMC8797792:

Biological target: GST-Fbw7 (residues 263 to 707)-Skp1 complex (UniProt Q969H0)
Test: AlphaScreen or HTRF

IC50: 1320 nM
Substance: Myc T58 degron peptide, monophosphorylated (pT58)
